From patent publication US11306156
Like-named read-outs stand apart in the source and are kept apart here. Each block holds one substance with its values, some of them ahead of it.

Tests used:
[1] = biological target: D3H44 Fab heavy chain F122C_C233S; assay: LCCA, L1:L2 DNA 1:3 normalised to 1:1, SPR of light chain tags; competitor m42
[2] = biological target: D3H44 Fab heavy chain S188L_V190Y; assay: LCCA, L1:L2 DNA 1:3 normalised to 1:1, SPR of light chain tags; competitor m45
[3] = biological target: D3H44 Fab heavy chain A139G_F174V_V190A; assay: as above
[4] = biological target: D3H44 Fab heavy chain S188L_V190Y; assay: LCCA, L1:L2 DNA 1:9 normalised to 1:1, SPR of light chain tags; competitor m45
[5] = biological target: D3H44 Fab heavy chain A139G_F174V_V190A; assay: as above
[6] = biological target: D3H44 Fab heavy chain S188L; assay: LCCA, L1:L2 DNA 1:3 normalised to 1:1, SPR of light chain tags; competitor m42
[7] = biological target: D3H44 Fab heavy chain S188G; assay: as above
[8] = biological target: D3H44 Fab heavy chain L124R_Q179K; assay: LCCA, SPR of light chain tags; L1:L2 DNA 1:9 normalized to 1:1; competitor m10
[9] = biological target: D3H44 Fab heavy chain L124E_L143E_K145T; assay: as above
[10] = biological target: D3H44 Fab heavy chain L124E_L143D_K145T (H1 of LCCA sets 9214, 9217, 9216, 9219, 9220, 9225, 9228, 9229); assay: LCCA: H1 co-expressed with L1 and L2 (DNA 333:250:749 ng), His-tag capture on SPR chip, light chain tags detected with anti-HA/anti-FLAG; competitor L1 Q124K_V133G_S176R_T178R
[11] = biological target: D3H44 Fab heavy chain L124E_L143E_K145M (H1 of LCCA sets 9269, 9266, 9267, 9260, 9262, 9263); assay: as above
[12] = biological target: D3H44 Fab heavy chain L124R_D146N_Q179K (H1 of LCCA sets 9358, 9359, 9357, 9351, 9352, 9353, 9354, 9350); assay: LCCA: H1 co-expressed with L1 and L2 (DNA 333:250:749 ng), His-tag capture on SPR chip, light chain tags detected with anti-HA/anti-FLAG; competitor L2 Q124K_V133G_S176R_T178K
[13] = biological target: D3H44 Fab heavy chain L124E_L143D_K145T (H1 of LCCA sets 9214, 9217, 9216, 9219, 9220, 9225, 9228, 9229); assay: LCCA: H1 co-expressed with L1 and L2 (DNA 333:250:749 ng), His-tag capture on SPR chip, light chain tags detected with anti-HA/anti-FLAG; competitor L1 Q124K_V133G_S176R_T178K
[14] = biological target: D3H44 Fab heavy chain L124R_D146N_Q179K (H1 of LCCA sets 9358, 9359, 9357, 9351, 9352, 9353, 9354, 9350); assay: LCCA: H1 co-expressed with L1 and L2 (DNA 333:250:749 ng), His-tag capture on SPR chip, light chain tags detected with anti-HA/anti-FLAG; competitor L2 Q124K_V133G_Q160K_S176R
[15] = biological target: D3H44 Fab heavy chain L124E_K145M_Q179E; assay: LCCA, SPR of light chain tags; L1:L2 DNA 1:3 normalized to 1:1; competitor m8
[16] = biological target: D3H44 Fab heavy chain L124R_D146N_Q179K; assay: as above
[17] = biological target: D3H44 Fab heavy chain L124R_Q179K; assay: LCCA, SPR of light chain tags; L1:L2 DNA 1:3 normalized to 1:1; competitor m10
[18] = biological target: D3H44 Fab heavy chain L124E_L143E_K145T; assay: as above
[19] = biological target: D3H44 Fab heavy chain L124R_D146N_Q179K (H1 of LCCA sets 9358, 9359, 9357, 9351, 9352, 9353, 9354, 9350)
[20] = biological target: D3H44 Fab heavy chain L124R_D146N_Q179K; assay: LCCA, L1:L2 DNA 1:3 normalised to 1:1, SPR of light chain tags; competitor m55
[21] = biological target: D3H44 Fab heavy chain L124E_L143E_K145M; assay: as above
[22] = biological target: D3H44 Fab heavy chain L124R_D146N_Q179K (H1 of LCCA sets 9358, 9359, 9357, 9351, 9352, 9353, 9354, 9350); remark: listed apart in the source
[23] = biological target: D3H44 Fab heavy chain of LCCA set 6036; assay: LCCA, L1:L2 DNA 1:3 normalised to 1:1, SPR of light chain tags; competitor m50
[24] = biological target: D3H44 Fab heavy chain L124A; assay: as above
[25] = biological target: D3H44 Fab heavy chain L124W_L143F; assay: as above
[26] = biological target: D3H44 Fab heavy chain of LCCA set 6036; assay: LCCA, L1:L2 DNA 1:3 normalised to 1:1, SPR of light chain tags; competitor m51
[27] = biological target: D3H44 Fab heavy chain L124A; assay: as above
[28] = biological target: D3H44 Fab heavy chain L124W_L143F; assay: as above
[29] = biological target: D3H44 Fab heavy chain S188L_V190F; assay: LCCA, L1:L2 DNA 1:9 normalised to 1:1, SPR of light chain tags; competitor m49
[30] = biological target: D3H44 Fab heavy chain S188L; assay: LCCA, L1:L2 DNA 1:3 normalised to 1:1, SPR of light chain tags; competitor m48
[31] = biological target: D3H44 Fab heavy chain S188L_V190F; assay: LCCA, L1:L2 DNA 1:3 normalised to 1:1, SPR of light chain tags; competitor m49
[32] = biological target: D3H44 Fab heavy chain S188L; assay: LCCA, L1:L2 DNA 1:3 normalised to 1:1, SPR of light chain tags; competitor m47
[33] = biological target: D3H44 Fab heavy chain P175C_C233S; assay: LCCA, L1:L2 DNA 1:3 normalised to 1:1, SPR of light chain tags; competitor m42
[34] = biological target: D3H44 Fab heavy chain P175C_C233S; assay: LCCA, L1:L2 DNA 1:9 normalised to 1:1, SPR of light chain tags; competitor m42
[35] = biological target: D3H44 Fab heavy chain A139C_C233S; assay: LCCA, L1:L2 DNA 1:3 normalised to 1:1, SPR of light chain tags; competitor m42
[36] = biological target: D3H44 Fab heavy chain A139C_C233S; assay: LCCA, L1:L2 DNA 1:9 normalised to 1:1, SPR of light chain tags; competitor m42

Substance: D3H44 light chain S121C_C214S
H1L1:H1L2 normalized median scalar value ln(r1/f1) [1]: 3.12

Substance: D3H44 light chain Q124E_V133G_S176D_T178E_T180E
H2L2:H2L1 normalized median ratio (% of heavy chain paired) [8]: 84
H1L1:H1L2 normalized median ratio (% of heavy chain paired) [9]: 2
median LCCA performance normalized to a L1:L2 DNA ratio of 1:1 (ratio H1-L1:H1-L2), H1-L2 share (ratio part of 100) [10]: 17
median LCCA performance normalized to a L1:L2 DNA ratio of 1:1 (ratio H1-L1:H1-L2), H1-L2 share (ratio part of 100) [11]: 16
median LCCA performance normalized to a L1:L2 DNA ratio of 1:1 (ratio H1-L1:H1-L2), H1-L1 share (ratio part of 100) [12]: 84
median LCCA performance normalized to a L1:L2 DNA ratio of 1:1 (ratio H1-L1:H1-L2), H1-L2 share (ratio part of 100) [13]: 21
median LCCA performance normalized to a L1:L2 DNA ratio of 1:1 (ratio H1-L1:H1-L2), H1-L1 share (ratio part of 100) [14]: 82
H1L1:H1L2 normalized median ratio (% of heavy chain paired) [15]: 6
H2L2:H2L1 normalized median ratio (% of heavy chain paired) [16]: 90
H2L2:H2L1 normalized median ratio (% of heavy chain paired) [17]: 92
H1L1:H1L2 normalized median ratio (% of heavy chain paired) [18]: 5
median LCCA performance normalized to a L1:L2 DNA ratio of 1:1 (ratio H1-L1:H1-L2), H1-L1 share (ratio part of 100) [19]: 90
H2L2:H2L1 normalized median ratio [20]: 84%
H1L1:H1L2 normalized median ratio [21]: 16%
median LCCA performance normalized to a L1:L2 DNA ratio of 1:1 (ratio H1-L1:H1-L2), H1-L1 share (ratio part of 100) [22]: 89

Substance: D3H44 light chain V133A
H2L2:H2L1 normalized median ratio [23]: 59%
H1L1:H1L2 normalized median ratio [24]: 59%
H2L2:H2L1 normalized median ratio [25]: 56%

Substance: D3H44 light chain V133W
H2L2:H2L1 normalized median ratio [26]: 41%
H1L1:H1L2 normalized median ratio [27]: 41%
H1L1:H1L2 normalized median scalar value ln(r1/f1) [27]: -0.38
H2L2:H2L1 normalized median ratio [28]: 44%

Substance: D3H44 light chain S162C_C214S
H1L1:H1L2 normalized median scalar value ln(r1/f1) [33]: 1.84
H1L1:H1L2 normalized median scalar value ln(r1/f1) [34]: 1.24

Substance: D3H44 light chain F116C_C214S
H1L1:H1L2 normalized median scalar value ln(r1/f1) [35]: 1.37
H1L1:H1L2 normalized median scalar value ln(r1/f1) [36]: 1.39

The next lines start with the values.

H2L2:H2L1 normalized median ratio [2]: 58%
H1L1:H1L2 normalized median ratio [3]: 26%
H2L2:H2L1 normalized median ratio [4]: 62%
H1L1:H1L2 normalized median ratio [5]: 11%
Substance: D3H44 light chain V133S

H2L2:H2L1 normalized median ratio [6]: 7%
H1L1:H1L2 normalized median ratio [7]: 22%
H1L1:H1L2 normalized median scalar value ln(r1/f1) [7]: -1.25
Substance: D3H44 light chain S176L

H2L2:H2L1 normalized median ratio [29]: 72%
H2L2:H2L1 normalized median ratio [30]: 61%
H2L2:H2L1 normalized median ratio [31]: 61%
H2L2:H2L1 normalized median ratio [32]: 93%
Substance: D3H44 light chain, wild type
